The source of these data is patent US20220332804A1 (CSL INNOVATION, published 2022).

Where a chain is given by its changes, count along the chain named.

Experiment in all cases: SPR, antibody captured, C2 as analyte;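 further: biacore SPR at 37 °C, anti-C2 mAbs captured via goat anti-human IgG on CM5 chips, double-referenced sensorgrams fit to a 1:1 kinetic or steady-state model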
In general terms: Surface plasmon resonance follows binding to a sensor surface in real time, without labels.

One assay addresses T1, human C2 G530A (human, UniProt P06681 21-752).
T1 sequence: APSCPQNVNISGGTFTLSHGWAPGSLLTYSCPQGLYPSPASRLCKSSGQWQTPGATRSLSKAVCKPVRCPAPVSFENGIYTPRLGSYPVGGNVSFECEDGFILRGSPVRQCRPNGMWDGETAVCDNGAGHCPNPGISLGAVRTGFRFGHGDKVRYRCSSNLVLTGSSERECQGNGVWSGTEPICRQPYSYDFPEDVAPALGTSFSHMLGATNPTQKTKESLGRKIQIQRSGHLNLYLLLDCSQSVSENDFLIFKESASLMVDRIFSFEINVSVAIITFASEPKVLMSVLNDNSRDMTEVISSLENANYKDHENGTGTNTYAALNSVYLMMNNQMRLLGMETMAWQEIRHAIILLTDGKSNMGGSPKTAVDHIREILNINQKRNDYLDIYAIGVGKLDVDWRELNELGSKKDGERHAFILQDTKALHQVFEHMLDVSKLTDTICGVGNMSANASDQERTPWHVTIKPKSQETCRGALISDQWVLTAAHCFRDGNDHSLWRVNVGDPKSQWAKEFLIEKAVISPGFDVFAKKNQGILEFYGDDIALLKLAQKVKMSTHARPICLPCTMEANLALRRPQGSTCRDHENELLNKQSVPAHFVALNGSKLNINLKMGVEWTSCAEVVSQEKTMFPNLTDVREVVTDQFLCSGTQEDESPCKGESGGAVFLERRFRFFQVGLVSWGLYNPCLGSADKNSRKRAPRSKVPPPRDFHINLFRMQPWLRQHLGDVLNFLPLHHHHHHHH

For the next assay, the target named is T2, human C2 N471A (human, UniProt P06681 21-752).
T2 sequence: T1 sequence with N451A, A510G

In another assay the target is T3, human C2 D561A (human, UniProt P06681 21-752).
T3 sequence: T1 sequence with A510G, D541A

For the next assay, the target named is T4, human C2 K711A (human, UniProt P06681 21-752).
T4 sequence: T1 sequence with A510G, K691A

B1: RF16-226 (antibody, human IgG4 S228P, lambda)
heavy: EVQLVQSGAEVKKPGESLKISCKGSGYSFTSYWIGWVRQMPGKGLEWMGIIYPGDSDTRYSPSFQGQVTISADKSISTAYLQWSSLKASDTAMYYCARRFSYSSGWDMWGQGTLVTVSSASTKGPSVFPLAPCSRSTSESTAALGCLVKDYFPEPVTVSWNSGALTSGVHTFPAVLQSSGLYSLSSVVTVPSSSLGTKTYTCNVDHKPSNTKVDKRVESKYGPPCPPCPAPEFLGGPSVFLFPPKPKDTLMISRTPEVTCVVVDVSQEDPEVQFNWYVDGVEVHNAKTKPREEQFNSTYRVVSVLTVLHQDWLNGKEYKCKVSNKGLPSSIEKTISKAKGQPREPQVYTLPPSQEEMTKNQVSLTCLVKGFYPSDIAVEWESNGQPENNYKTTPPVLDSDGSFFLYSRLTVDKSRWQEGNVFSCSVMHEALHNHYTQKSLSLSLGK
light: SYELTQPPSVSVSPGQTARITCSGDALTSKYVAWYQQKSGLAPLLVIYEDTRRPSGIPAKFSGSSSGSVATLTISGAHGDDEADYYCYSTDASGHQRVFGGGTKLTVLSQPKAAPSVTLFPPSSEELQANKATLVCLISDFYPGAVTVAWKADGSPVKAGVETTKPSKQSNNKYAASSYLSLTPEQWKSHRSYSCQVTHEGSTVEKTVAPTECS
notes: pH-dependent anti-C2 antibody from a phage display library; also called WT
Take B1: the Kd (usually the constant that tells how readily two partners part at equilibrium) with human C2 G530A stood at 16.7 nM; with human C2 N471A, 9.7 nM; with human C2 D561A, 102 nM; with human C2 K711A it was 49.6 nM.
